Results taken from article PMC8776337, “Peptides Derived from Vascular Endothelial Growth Factor B Show Potent Binding to Neuropilin‐1” (Chembiochem, 2021).

How the values were obtained:
[1] = biological target: T1, NRP1‐b1 (Homo sapiens, UniProt O14786); assay: SPR binding of NRP1-b1 in solution to immobilised VEGFs; details: VEGF immobilised on CM5 chip, NRP1-b1 0.25 to 64 μM in PBS, 60 s, steady-state, 1:1 interaction, 25 °C, read-out: KD of NRP1‐b1 for immobilized VEGF
T1 construct: the immobilized b1 domain of NRP1 (NRP1‐b1); poly-histidine (TEV-cleavable) (cleaved yes); made in house; host or cells: E. coli Rosetta (DE3)
T1 sequence (O14786 275-424 limits assumed): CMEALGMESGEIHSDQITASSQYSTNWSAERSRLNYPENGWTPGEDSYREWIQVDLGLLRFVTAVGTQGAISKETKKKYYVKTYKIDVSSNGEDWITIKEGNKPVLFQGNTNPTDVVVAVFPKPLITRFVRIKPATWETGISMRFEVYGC
Description: We have previously reported the use of SPR to characterise the interaction between the immobilized b1 domain of NRP1 (NRP1‐b1) and VEGF‐A‐derived peptides,[23] arginine analogues,[26] and small molecules.[27, 28] When we attempted to measure the binding affinity of VEGF‐B isoforms to immobilized NRP1‐b1 we observed non‐saturable binding responses. Increasing concentrations of VEGF‐B over immobilised NRP1 led to response units (RU) higher than the theoretical maximum for a 1 : 1 interaction. The shape of the curves remained consistent at low and high concentration and was not typical of sample precipitation (fuzzy heterogeneous curves, commonly observed only at higher concentrations). […] We consider that the observations are consistent with oligomerization as a form of non‐specific binding. […] To circumvent this, we immobilized VEGF‐B167 and VEGF‐A165 (Figure 2) onto a sensor chip and measured the binding of NRP1‐b1 domain in solution. Using this method, the binding affinity of NRP1‐b1 to immobilized VEGF‐A165 was 100‐fold lower than previously observed when the interaction was measured in reverse experimental configuration.[23] […]
Binding of NRP1‐b1 to VEGFs: Dose responses were obtained by injecting NRP1‐b1 in PBS over the immobilized VEGFs for 60 s, using two‐fold dilutions from 64 to 0.25 μM. Steady‐state binding affinities were calculated assuming a 1 : 1 interaction.

[2] = tested on: VEGFs; assay: SPR direct binding of EG01377 to immobilised VEGFs; set-up: species or system human; details: immobilised VEGF-A165 and VEGF-B167
Description: (§1) We have previously reported the use of SPR to characterise the interaction between the immobilized b1 domain of NRP1 (NRP1‐b1) and VEGF‐A‐derived peptides,[23] arginine analogues,[26] and small molecules.[27, 28] When we attempted to measure the binding affinity of VEGF‐B isoforms to immobilized NRP1‐b1 we observed non‐saturable binding responses. Increasing concentrations of VEGF‐B over immobilised NRP1 led to response units (RU) higher than the theoretical maximum for a 1 : 1 interaction. The shape of the curves remained consistent at low and high concentration and was not typical of sample precipitation (fuzzy heterogeneous curves, commonly observed only at higher concentrations). […] We consider that the observations are consistent with oligomerization as a form of non‐specific binding. […] To circumvent this, we immobilized VEGF‐B167 and VEGF‐A165 (Figure 2) onto a sensor chip and measured the binding of NRP1‐b1 domain in solution. Using this method, the binding affinity of NRP1‐b1 to immobilized VEGF‐A165 was 100‐fold lower than previously observed when the interaction was measured in reverse experimental configuration.[23] […] We then sought to investigate if binding could be blocked by a known inhibitor of the VEGF‐A interaction with NRP1‐b1. […]

[3] = biological target: T2, NRP1‐b1 binding to VEGF‐B167 (Homo sapiens, UniProt O14786); assay: SPR EG01377 competition assay, NRP1-b1 binding to immobilised VEGF-B167; details: NRP1-b1 5 μM, EG01377 6.25 to 50 μM, 60 s
T2 construct: poly-histidine (TEV-cleavable) (cleaved yes); made in house; host or cells: E. coli Rosetta (DE3) (NRP1-b1 only)
T2 sequence (O14786 275-424 limits assumed): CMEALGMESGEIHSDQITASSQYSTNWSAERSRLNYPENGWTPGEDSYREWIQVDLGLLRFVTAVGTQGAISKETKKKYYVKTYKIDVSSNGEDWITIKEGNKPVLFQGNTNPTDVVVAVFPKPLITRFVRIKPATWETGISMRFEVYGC
Description: as §1

[4] = biological target: T3, NRP1‐b1 binding to VEGF‐A165 (Homo sapiens, UniProt O14786); assay: SPR EG01377 competition assay, NRP1-b1 binding to immobilised VEGF-A165; details: NRP1-b1 5 μM, EG01377 1.25 to 10 μM, 60 s
T3 construct: poly-histidine (TEV-cleavable) (cleaved yes); made in house; host or cells: E. coli Rosetta (DE3) (NRP1-b1 only)
T3 sequence (O14786 275-424 limits assumed): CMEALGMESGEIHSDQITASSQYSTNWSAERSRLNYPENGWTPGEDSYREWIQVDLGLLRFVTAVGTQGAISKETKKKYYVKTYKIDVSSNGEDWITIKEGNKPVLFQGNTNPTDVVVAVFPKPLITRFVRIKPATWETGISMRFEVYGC
Description: as §1

[5] = biological target: T4, VEGF‐A165 (human, UniProt P15692-4 1-191); assay: SPR; VEGF-A165 and VEGF-B167 immobilised on a CM5 chip by random amine coupling; NRP1-b1 in PBS injected for 60 s, two-fold dilutions from 64 to 0.25 μM; 25 °C; steady-state affinity assuming a 1:1 interaction; details: both partners purified
T4 construct: vascular endothelial growth factor A, isoform VEGF-A165, human
T4 sequence (P15692 other isoform, or with tags, fused parts or gaps): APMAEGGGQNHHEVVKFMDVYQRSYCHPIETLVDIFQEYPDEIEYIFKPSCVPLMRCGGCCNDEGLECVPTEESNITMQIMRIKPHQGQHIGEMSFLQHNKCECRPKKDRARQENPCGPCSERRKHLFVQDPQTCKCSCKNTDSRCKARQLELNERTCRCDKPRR

[6] = biological target: T5, VEGF‐B167 (human, UniProt P49765-2 22-188); assay: as above; details: both partners purified
T5 construct: vascular endothelial growth factor B, isoform VEGF-B167, human
T5 sequence (looked up): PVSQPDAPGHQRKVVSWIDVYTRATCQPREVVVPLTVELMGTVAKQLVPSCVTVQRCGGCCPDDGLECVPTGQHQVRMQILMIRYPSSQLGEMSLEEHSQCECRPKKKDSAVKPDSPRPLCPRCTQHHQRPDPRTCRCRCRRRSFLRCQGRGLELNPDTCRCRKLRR

VEGF‐A165: Vascular endothelial growth factor A isoform 165, immobilised on the sensor chip
Kd [1]: 9 µM

NCc1ccc(-c2cc3c(c(S(=O)(=O)Nc4ccsc4C(=O)N[C@@H](CCCN=C(N)N)C(=O)O)c2)OCC3)cc1 [EG01377]
Binding to VEGFs [2]: No binding was observed
Effect on binding of NRP1‐b1 to immobilised VEGF‐B167 [3]: reduced the binding
Effect on binding of NRP1‐b1 to immobilised VEGF‐A165 [4]: reduced the binding

B1: b1 domain of neuropilin‐1 (NRP1‐b1) (domain or fragment, human)
chain: FKCMEALGMESGEIHSDQITASSQYSTNWSAERSRLNYPENGWTPGEDSYREWIQVDLGLLRFVTAVGTQGAISKETKKKYYVKTYKIDVSSNGEDWITIKEGNKPVLFQGNTNPTDVVVAVFPKPLITRFVRIKPATWETGISMRFEVYGCKIT
notes: neuropilin-1, human, b1 domain; also called NRP1‐b1 domain; NRP1 b1 domain; source: E. coli Rosetta (DE3), purified (HisTrap, TEV cleavage, Superdex 75, SP FF ion exchange)
Kd [5]: 9 µM
Kd [6]: 36 µM

B2: VEGF‐B167: Vascular endothelial growth factor B isoform 167, immobilised on the sensor chip (protein)
chain: PVSQPDAPGHQRKVVSWIDVYTRATCQPREVVVPLTVELMGTVAKQLVPSCVTVQRCGGCCPDDGLECVPTGQHQVRMQILMIRYPSSQLGEMSLEEHSQCECRPKKKDSAVKPDSPRPLCPRCTQHHQRPDPRTCRCRCRRRSFLRCQGRGLELNPDTCRCRKLRR
Kd [1]: 36 µM
